± gives the uncertainty stated by the source.
Test: protein stability index of a GFP-peptide fusion (yeast GPS) (PSI 1-4); higher = more stable; sorted into four equal gates, so the index is relative within each strain
Summary of the method: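 Tiled 17-residue peptides from yeast proteins were fused downstream of GFP on a plasmid that also expresses Cherry, and the pooled library was carried in yeast. Mid-log cultures grown in leucine-free medium were sorted into four equal gates by GFP/Cherry fluorescence ratio. Plasmids from each gate were PCR-amplified and Illumina-sequenced, and reads were assigned to strains by barcodes. Each peptide's protein stability index is the sum, over gates, of the gate's read frequency multiplied by its gate number.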

| Sequence | protein stability index (doa10∆) | protein stability index (pdr5∆) | protein stability index (san1∆) | protein stability index (ubr1∆) |
| --- | --- | --- | --- | --- |
| PTRYVLIRNVGTNTYRL [POP1] | 1.97 ± 0.29 | 1.32 ± 0.23 | 1.12 ± 0.28 |  |
| PTVHNSTAAAPIAAPKK [PGD1] | 2.81 ± 0.065 | 3.08 ± 0.071 | 2.83 ± 0.052 | 3.072 ± 0.029 |
| PVDHPHGGGNHQHIGKA [RPL2A] | 3.11 ± 0.11 | 3.31 ± 0.085 | 3.09 ± 0.051 | 3.22 ± 0.071 |
| PVENIWADIFAKALDGQ [RPP1A] | 3.13 ± 0.1 | 3.25 ± 0.12 | 2.49 ± 0.23 | 2.62 ± 0.1 |
| PVIDYELKEITSLPDWC [BRR2] | 2.8 ± 0.099 | 2.78 ± 0.086 | 3.1 ± 0.086 | 3.05 ± 0.048 |
| PVKALNECIASTSNALK [SNF12] | 2.85 ± 0.056 | 2.8 ± 0.066 | 2.75 ± 0.05 | 2.81 ± 0.051 |
| PVKLDENSANSTVASAL [SIR4] | 2.9 ± 0.13 | 3.09 ± 0.081 | 2.76 ± 0.09 | 2.9 ± 0.074 |
| PVLDNPFTNEAHMWPRV [POP3] | 3.26 ± 0.12 | 2.94 ± 0.1 | 2.99 ± 0.11 | 3.27 ± 0.06 |
| PVLFNRQPSLHKMSMMA [RPO21] | 2.54 ± 0.11 | 2.95 ± 0.093 | 3.05 ± 0.23 | 2.23 ± 0.16 |
| PVRPVRVRHEDVETVKR [RPC53] | 2.9 ± 0.077 | 2.97 ± 0.048 | 2.88 ± 0.055 | 3.04 ± 0.037 |
| PYAIVKGKARLGTLVNQ [RPL8A] | 2.54 ± 0.1 | 2.81 ± 0.093 | 2.74 ± 0.16 | 2.73 ± 0.073 |
| PYFDYIFNDILAHVDQI [YJL039C/NUP192] | 1.9 ± 0.11 | 1.89 ± 0.077 | 2.39 ± 0.099 | 1.94 ± 0.054 |
| PYQHPPNIFPNLTYYNE [ITC1] | 2.68 ± 0.058 | 2.83 ± 0.045 | 2.66 ± 0.045 | 2.76 ± 0.039 |
| PYTGWVDSKTKEPVDDK [FAS2] | 3.05 ± 0.062 | 3.17 ± 0.069 | 3.05 ± 0.045 | 3.17 ± 0.053 |
| PYYKYLCEEYLVNNGQS [RPN7] | 2.86 ± 0.087 | 2.41 ± 0.091 | 2.61 ± 0.088 | 1.77 ± 0.067 |
| QAHEIVIPSYSKWFNLE [SWI3] | 1.84 ± 0.052 | 1.82 ± 0.051 | 1.81 ± 0.071 | 1.66 ± 0.038 |
| QAHTLYNSVRPFGVSTI [PRE10] | 2.71 ± 0.083 | 2.74 ± 0.071 | 2.92 ± 0.095 | 2.6 ± 0.042 |
| QAIPKFQMNCYAKEDAF [RPN2] | 1.84 ± 0.061 | 2.23 ± 0.044 | 2.17 ± 0.067 | 2.57 ± 0.036 |
| QALDISKKGKPTVNKKP [SRP72] | 2.59 ± 0.16 | 2.82 ± 0.1 | 2.36 ± 0.16 | 2.3 ± 0.14 |
| QALEKIGIVEISPKGGR [RPS19A] | 2.46 ± 0.15 | 2.74 ± 0.18 | 2.2 ± 0.13 | 2.56 ± 0.15 |

| Sequence | protein stability index (doa10∆) | protein stability index (pdr5∆) | protein stability index (san1∆) | protein stability index (ubr1∆) |
| --- | --- | --- | --- | --- |
| QAMGVFLTNYNVRMDTM [RPB2] | 3.54 ± 0.19 | 3.14 ± 0.16 | 3.63 ± 0.11 | 3.5 ± 0.14 |
| QAPFSTSTKDKNSSTSN [MED1] | 3.11 ± 0.062 | 3.24 ± 0.068 | 3.12 ± 0.054 | 3.09 ± 0.048 |
| QAQAQAQAQAQAQAQAQ [GAL11] | 2.84 ± 0.032 | 3.1 ± 0.034 | 3.101 ± 0.024 | 3.04 ± 0.033 |
| QAQQAQQAQARLQQGRR [SNF2] | 3.02 ± 0.08 | 3.11 ± 0.092 | 2.88 ± 0.048 | 3.02 ± 0.061 |
| QDIKKAKRVENFNSSAP [DSN1] | 3.31 ± 0.1 | 3.44 ± 0.085 | 3.02 ± 0.16 | 3.42 ± 0.06 |
| QDISSSTRVEFEKLYSD [FAS2] |  | 3.05 ± 0.24 | 3.27 ± 0.14 |  |
| QDKEGIPPDQQRLIFAG [RPS31] | 2.95 ± 0.068 | 2.8 ± 0.057 | 3.19 ± 0.035 | 3.15 ± 0.033 |
| QDKEKIDNLKDTLKENA [ITC1] | 2.87 ± 0.046 | 3.07 ± 0.055 | 3.02 ± 0.043 | 3.09 ± 0.04 |
| QDLNQRFQDPYVAIVVD [RRI1] |  | 2.79 ± 0.11 | 2.29 ± 0.15 | 2.71 ± 0.12 |
| QDRQQLLPLVVSNISCL [ECM29] | 1.38 ± 0.046 | 1.38 ± 0.036 | 1.29 ± 0.074 | 1.29 ± 0.034 |
| QDSILIIYPRSQTTLVQ [ARP9] | 2.6 ± 0.16 | 1.81 ± 0.064 | 2.23 ± 0.079 | 2.46 ± 0.067 |
| QDVDFYKNLDRGFSKDL [RRP6] | 3.44 ± 0.13 | 3.75 ± 0.15 | 3.25 ± 0.074 | 3.23 ± 0.097 |
| QEAVNSLKGYKIENSVQ [CSI1] | 3.2 ± 0.13 | 3.29 ± 0.079 | 3.32 ± 0.051 | 3.39 ± 0.073 |
| QEESFSLNLGIGIVEIA [SRB8] | 1.33 ± 0.11 | 1.79 ± 0.088 | 2.08 ± 0.29 | 1.89 ± 0.094 |
| QEGMNECPGHFGHIDLA [RPO21] | 3.27 ± 0.21 | 3.25 ± 0.098 | 3.33 ± 0.074 | 3.29 ± 0.09 |
| QELISKAFTNWNKRDFM [ISW2] | 2.27 ± 0.14 | 3.55 ± 0.23 | 1.59 ± 0.15 | 2.89 ± 0.25 |
| QELKADSPFSLICQNNL [SRP72] | 2.53 ± 0.078 | 2.56 ± 0.064 | 2.66 ± 0.054 | 2.85 ± 0.049 |
| QESSSLRLLEVTDDDRL [POP8] | 2.1 ± 0.068 | 2.08 ± 0.078 | 2.5 ± 0.12 | 1.65 ± 0.068 |
| QEYAIEMKIGSIESKLE [SMC1] | 2.84 ± 0.091 | 3.34 ± 0.12 | 2.74 ± 0.1 | 2.94 ± 0.093 |
